# Data taken from publication PMC3861664 (The Journal of Biological Chemistry, 2013).
# T1: glucagon receptor extracellular domain, wild type (recombinant, soluble) (Homo sapiens)
# T1 construct: glucagon receptor (GCGR), human, extracellular domain; A biotinylated form was used for phage selections; also called GCGR ECD; WT ECD
# T1 chain: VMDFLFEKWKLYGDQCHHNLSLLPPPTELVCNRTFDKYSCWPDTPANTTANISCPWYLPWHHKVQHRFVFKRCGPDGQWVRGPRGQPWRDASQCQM
# T2: glucagon receptor extracellular domain with the naturally occurring G40S mutation (recombinant, soluble) (human)
# T2 chain: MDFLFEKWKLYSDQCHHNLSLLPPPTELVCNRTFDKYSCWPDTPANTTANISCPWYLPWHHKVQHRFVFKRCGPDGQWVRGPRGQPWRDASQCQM
# Tests used:
# [1] = molecular target: T1, glucagon receptor extracellular domain, …; experiment: AlphaScreen or HTRF; competition: soluble WT or G40S GCGR ECD against WT GCGR ECD on donor beads for binding to mAb7, its variants (IgG) or mAb1 on acceptor beads; settings: both partners purified
# [2] = molecular target: T2, glucagon receptor extracellular domain …; experiment: AlphaScreen competition with WT ECD
binding result [1],IC50 [2] [nM],Binder
binds,21,"mAb7.v35, humanized mAb7 with S54T/N97G (IgG) (antibody, V domains shown, mAb7.v1 heavy chain with S54T (CDR H2) and N97G (CDR H3); that is the heavy chain of m13 (PDB 4LEX) with S28T put back and N97G added; as the light chain of m13 (PDB 4LEX); IgG; The methods say that mutations found in the humanised background were also introduced into murine mAb7 clones; source: recombinant antibody) VH: EVQLVESGPGLVKPSETLSLSCTVSGDSITSGFWNWIRQPPGKGLEWIGYIGFTGSTYYNPSLKSRVTISRDTSKNQYSLKLSSVTAADTAVYYCASVDGSAALDYWGQGTLVTVSS VL: DIVMTQTPLSLPVTPGQPASISCRSSQSLVHSNGNTYLHWYLQKPGQSPQLLIYKVSNRFSGVPDRFSGSGSGTDFTLKISRVEAEDVGVYYCSQSTHVPWTFGQGTKVEIK"
binds,,"mAb7.v1, humanized version of mAb7 (IgG) (antibody, V domains shown, as the light chain of m13 (PDB 4LEX); IgG; source: recombinant antibody) VH: EVQLVESGPGLVKPSETLSLSCTVSGDSITSGFWNWIRQPPGKGLEWIGYIGFSGSTYYNPSLKSRVTISRDTSKNQYSLKLSSVTAADTAVYYCASVDNSAALDYWGQGTLVTVSS VL: DIVMTQTPLSLPVTPGQPASISCRSSQSLVHSNGNTYLHWYLQKPGQSPQLLIYKVSNRFSGVPDRFSGSGSGTDFTLKISRVEAEDVGVYYCSQSTHVPWTFGQGTKVEIK"
binds,87,"mAb7.v19, humanized mAb7 with N97G (IgG) (antibody, V domains shown, mAb7.v1 heavy chain with N97G (CDR H3); that is the heavy chain of m13 (PDB 4LEX) with S28T and S54T put back and N97G added; as the light chain of m13 (PDB 4LEX); IgG; also called N97G containing antibody; source: recombinant antibody) VH: EVQLVESGPGLVKPSETLSLSCTVSGDSITSGFWNWIRQPPGKGLEWIGYIGFSGSTYYNPSLKSRVTISRDTSKNQYSLKLSSVTAADTAVYYCASVDGSAALDYWGQGTLVTVSS VL: DIVMTQTPLSLPVTPGQPASISCRSSQSLVHSNGNTYLHWYLQKPGQSPQLLIYKVSNRFSGVPDRFSGSGSGTDFTLKISRVEAEDVGVYYCSQSTHVPWTFGQGTKVEIK"
binds,,"mAb7.v11, humanized mAb7 with S54T (IgG) (antibody, V domains shown, mAb7.v1 heavy chain with S54T (CDR H2); that is the heavy chain of m13 (PDB 4LEX) with S28T put back; as the light chain of m13 (PDB 4LEX); IgG; also called S54T alone; source: recombinant antibody) VH: EVQLVESGPGLVKPSETLSLSCTVSGDSITSGFWNWIRQPPGKGLEWIGYIGFTGSTYYNPSLKSRVTISRDTSKNQYSLKLSSVTAADTAVYYCASVDNSAALDYWGQGTLVTVSS VL: DIVMTQTPLSLPVTPGQPASISCRSSQSLVHSNGNTYLHWYLQKPGQSPQLLIYKVSNRFSGVPDRFSGSGSGTDFTLKISRVEAEDVGVYYCSQSTHVPWTFGQGTKVEIK"
binds,,"mAb1, inhibitory anti-GCGR monoclonal antibody (antibody, V domains shown, as the heavy chain of the mAb1 Fab in PDB 4LF3 and 4ERS; as the light chain of the mAb1 Fab in PDB 4LF3 and 4ERS; also called anti-GCGR mAb1) VH: QVQLVESGGGVVQPGRSLRLSCAASGFTFSSYGMHWVRQAPGKGLEWVAVMWYDGSNKDYVDSVKGRFTISRDNSKNTLYLQMNRLRAEDTAVYYCAREKDHYDILTGYNYYYGLDVWGQGTTVTVSS VL: DIQMTQSPSSLSASVGDRVTITCRASQGIRNDLGWYQQKPGKAPKRLIYAASSLESGVPSRFSGSGSGTEFTLTISSVQPEDFVTYYCLQHNSNPLTFGGGTKVEIK"
